# Data reported in the nanobody polyreactivity screen of Harvey et al. (2022).
# Test: yeast display, Sf9 membrane polyspecificity reagent, FACS + sequencing; frameworks hold sequencing errors
# Summary of the method: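 Using colony PCR, genes from sorted yeast display clones were amplified, then sequenced on MiSeq at 2 × 250 and filtered by CDR length. The clones had been stained with 10% biotinylated, detergent-solubilized Sf9 membrane reagent for 1 hour at 4 °C and sorted by FACS into low and high (top ~1%) gates on anti-HA and streptavidin fluorescence. Polyreactivity labels come from the gate of origin.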
row,Sequence,polyreactivity (PSR sort gate)
1,QVQLVESGGGLVQAGGSLRLSCAASGRTFSSYAMGWYIQAPGKERELVAAITRGGGSTYYADSVKGRFTISRDNAKNTVYLQMNSLKPEDTAVYYCAADYGRDYRAFNYWGQGTQVTVSS,high polyreactivity
2,QDQLVESGGGLVQAVGSLRLSCAASGSTFGLYAMGWYRQAPGKERELVAAITIRGGSTYYADSVKGRFTISRDNAKKTVYLQMNSLKPEDTAVYYCAADYWYGCFEYWGQGTQVTVSS,low polyreactivity
3,QVQLVESGGGLVQAGGSLRLSCAASGRTFGVYAMGWYRQAPGKERELVAAITWSGGSTYYADSVKGRFTISRDNAKNTVYLQMNSLKPEDTAVYYCAADNWYKKQKRPSAYDYWGQGTQVTVSS,high polyreactivity
4,QVQLVESGGGLVQAGGSRRISCAASGITFKWYAMGWYRQAPGKERELVAAISWSTGSTYYADSVKGRFTISRDNAKNTVYLQMNSLKPEDTAVSDCAADLQLPNLGDSYDYWGQGTQVTVSS,high polyreactivity
5,QVQLVESGGGLVQARGSLRLSCAASGSTFRFNAMGRYRQAPGKEREFVAAIRFTGGSTYYADSVKGRFTISRDYAKNTVYLQMNSLKPEDTAVYYCNNADEYSNVEYDYWGQGTQVTVSS,low polyreactivity
6,QVQLVESGGGLVQAGGSLRLSCAASGSTFGYYAMGWYRQAPGKERELVASITWGGGSTYYADSVKGRFTISRDNAKNTVYLQMNSLKPEDTAVYYCAATILGGTWGYGSYTYYYWGHGTQVTVSS,low polyreactivity
7,QVQLVESGGGLVQAGGSLRLSCAASGFTFWQYAMGWNRQAPGKERELVAAITWDVGSTYYSDSVKGRFTISRDNAKNTVYLQLNSLKPEDTAVYYCAKLIGGTYYEDDYWGQGSQVTVSS,low polyreactivity
8,QVQLVESGGGLVQAGGSLRLSCAASGYTFAPYVMGWYRQAPGKERELVARISNNGGSKYYADSVKGRFTISRDNAKNTFYLQMNSLKPEDTAVYYCAADVGLIYFRYYYCGQGTQVTVSS,low polyreactivity
9,QVQLVESGGGLVQAGGRLRLICAASGRTFTPYAMGWYRQAPGKERELVAAITRGGSTYYADSVKGRFTISRDNAKNTVYLHMNSLKPEDTAVYYCNALVSYYKLSSEYDYWGQGTQVTVSS,high polyreactivity
10,QVQLVESGGGLVQAGGSLRLSCAASGRTYTFYARGWYRQAPGKERELVAAITWGGGSTYYADSVKGRFTISRDNAKNTVYLQMNSLKPEDTAVYYCAAEWYEPVGSRWYSPYYYWGQGTQVTVSS,high polyreactivity
11,QVQLVESGGGLVQAGGSLRLSCAASGSIFYSYDMGWYRQAPGKERELVAAIDWSGGSTYYADSVKGRFTISRDNAKNTVYLQMNSLKPEDTAVYYCAADDQVEGDYWGQGTQVTVSS,high polyreactivity
12,QVQLVQSGGGLVQAGGSLRLSCSASGRIFSAYAMGWYRPAPGKERELVAAITWSGANTDYADSVKGRFTMSRDNAKYTVYLQMNSLKPEDTAVYYCNASVGRDSAYDYWGQGTQVTVSS,low polyreactivity
13,QVQLVESGGGLVQAGCSLRLSCAASGSTLYTYAMGWYRQAPGKERELVATISWSGSSTYYADSVKGRFTISRDNAKNTVYLQMNSLKPEDTAVYYCAAQYHYWYRLDYWGQGTQVTVSS,high polyreactivity
14,QVQLVESGGGLVQAGGSLRLSCAASGGTFPYYAMGWYRQAPGKERELVADISGTDGSTYYADSVKGRFTISRDNAKTTVYLQMNSLKPEDTAVYYCNADPHWWYWDYDYWGQGTQVTVSS,high polyreactivity
15,QVQLVESGGGLVQAGGSLRLSCAASGRIFRRNTMGWSRPAPGTERELVAAITSRGGSTYYADSVKGRFTISRDNAKNTVYLQMNSLKPADTAVYYCNTRVVPEIYDYWGQGTQVTVSS,high polyreactivity
16,QVHLVESGGGLVQAGGSLRLSCAASGRTFWLNAMGWYRQAPGKERELVATISSSSGSTTYADSVKGRFTISRDNAKNTVYLQINSLKPEDTAVYYCAVYSHKKVRPEYDYWGQGTQVTVSS,low polyreactivity
17,QVQLVESGGGLVQAGGSLRLSCAASGFTFYTYTMGWYRQAPGKERELVAVISRSGGSTYYADSVKGLFTISRDNAKNTVYLQMNSLNPEDTAVYYCNAGYWRFIDSFDYWGQRTQVTVSS,high polyreactivity
18,QDQLVDSGGGLDQAGGSLRLSCAATGRTIGINAMGWYRQAPGKERELVAVISFGDGGTYSADSVKGRFTISRDNAKNTVYLQMNSLKPEDTAVYYCATDYQSTSVWGGHFVINPFDYWGQGTQVTVSS,low polyreactivity
19,QVQLVESGGGLVQAGGSLRLSCAASGIIFRWYVMGWYRQSPGKERELVAAITNGGRTYYADSVKGRFTISRDNAKNTVYLQMNSLKPEDTEVYYCAAYFRRKMDYWGQGTQVTVSS,high polyreactivity
20,QVQLVESGGGLVKAGGSLRLSCAASGLIFIAYDMGWYRQAPGKERELVAAISSSGGSTYYADSVKGRFTISRDNAKNTVYFQMNSLKPEDTAVYYCASDTTKLQGVEGDYWGQGTQGTVSS,low polyreactivity
21,QVQLVESGGGLVQAGGSLRLSCAASGSTFGSYAMGWYRQAPGKERELVAAITASGGSTYYADSVKGRFTISRDNAKNTGYLQMNSLKPEDTAVYYCATRWFAFPWDEYNYWGQGTQVTVSS,low polyreactivity
22,QVQLVESGGGLVQAGGSLRLSCAASGGIFPYYAMGWYRQAPGKERELVADISSGGSTYYADSVKGRFTISRDNAKNSVYLQMNSLKPDDTAVYYCAADAGQYFTYSGDDNHDYWGQGTQVTVSS,low polyreactivity

row,Sequence,polyreactivity (PSR sort gate)
1,QVQLVESGGGLVQAGGSLRLSCASSGRIFTWYAMGWYRQAPGKERELVATISSGGSTNYADSVKGRFTISRDNAKNTVYLHMNSKKPEDTAVYYCAARRFFYRYYYKSDYWGQGTQVTVSS,high polyreactivity
2,QVQLVESGGGLVQAGGSLRLSCAASGFIFDSYAMGWYRQAPGKESELVAAINWNGGRTYYADSVRGRFTISRDNAKNTVYLQMNSLKPEDTAVYYCNAPGIHLGYYRFGYWGQGTQVTVSS,high polyreactivity
3,QVQLVESGGGLVQAGGSLRLSCAASGSTFAYNAMGWYRQAPGKERELVAAISWSGGTTYYADSVKGRFTISRDNAKNTVYLQMNSLKPEDTAVYYCAADVYLNRRQRMYYWGQGTQVTVSS,high polyreactivity
4,QVQLVESGGGLVQAGGSLRLSCAASGSIFGGNAMGWYRPAPGTVRELVAAITSSGGSTYYADSVKGRFTMSRDNAKNTVYLQMNSLNPEDTAVYYSNKAYPGRTYDYWGQGTQVTVSS,high polyreactivity
5,QVQLVESGGGLVQAGGSLRLSCAASGRIFRYYAMGWYRQAPGKERELVAAISRSGSTNYADSVKGRFTISRDNAKNTVYLQMNSLKPEDTAVYYCAADSNYLYFWRRYKRMDYWGQGTQVTVSS,high polyreactivity
6,QVQLVESGGGLVQAGGSLRLSCAASGSTFTWYTMGWYRQAPGKERELVAAISSSGGSTYYADSVKGRFTISRDNAKNTVYLQMNSLKPEDTAVYYCARRFPSPLYTRYDYWGQGTQVTVSS,high polyreactivity
7,QVQLVESGGGLVQAGGSLRLSCAASGRTFYPNAMGWYRQAPGKEREFVARISDSGGSTYYADSVKGRFTISRDNAKNTVYLLMNSLKPEDTAVYYCAADYGDPRVNEYDYWGQGTQVTVSS,low polyreactivity
8,QVQLVESGGGLVQAGGSLRLSCPASVSIFYTYAMGLYRQAPGKEREFFASNTYRGSNTYYADSVKGRFTISRDNAKNTVYLQMNSLKPEDTAVYYCAAERYLYYPPYIYETSYVYWGQGSQVTVSS,low polyreactivity
9,QVQLVESGGGLVQAGGSLGLSCAASGSTFGPNAMGWYRQAPGKERELVARITDSGGSTYYADSVKGRFTISRDNAKNTVDLQMNSLKQDDTAVYYCAAEVYLLSRYYTPAYDYWGQGTLVTVSS,low polyreactivity
10,QVQLVESGGGLFQAGGSLRISCAASGITFYGNAMGWYRQAPGKERELDATISSGGGTNYADSVKGRFTISRDNAKNTVYLQMNSLKPEDTAVYYCATDLSTVDYNYWGQGTQVTVSS,low polyreactivity
11,QVQLVESGGGLVQAGGSLRLSCAASGRTFSVYTMGWYRQAPGKERELVASINWSGGRTYYADSVKGRFTISRDNAKNTVYLQMNSLKPEDTAVYYCAATGWRTLYDYWGQGTQVTVSS,high polyreactivity
12,QVQLVESGGGLVQAGGSLRLSCAASGFTFSGYAMGWYRQAPGKERELVAAISTSGGNTYYADSVKGRFTISRDNAKNTVYLQMNSLKPEDTAVYYCAADDWPWGDAGVDYWGQGTLVTVSS,low polyreactivity
13,QVQLVESGGGLVQAGGSLRLSCAASGSIFHGNAMGWYRQAHGKERELVAVISDGGSTDYADSVKGRFTISRDNANNSVYLQMTSLKPEDTAVYYCNAAYDTQYFYRKHIYYLSGYDYWGQGTQVTVSS,low polyreactivity
14,QVQLVESGGGLVQAGGSLRLSCAASGSTFVYYALGWYRPSPGKERELVARITRSGGSTYYADSVKGRFTISRDNAKNTVYLQMNSLKPEDTAVYYCAAEQSVYFLVFTGVKFDYWGQGSQVTVSS,low polyreactivity
15,QVQLEESGGGLVQAGGSLRLSCAASGSTFYRYAMGCYRQAPGKERELVAAMSRGGGRTNYADSVKGRFTISRDNAKNTVYLQMNSLKPEDTAVYYGAAYTYSFRANHDYWGQGTQVTVSS,high polyreactivity
16,QVQLVESGGGLVQAGGSLRLSCAASGSIFGHYAMGWYRPAPGKERELVAGISSSSGGRTYYADSVKGRFTISRDNAKNTVYLQMNSLKPEDTAVDYCAAVYSVQVSRRAKYYYWGQGTQVTVSS,high polyreactivity
17,QVQLVESAGGFVQAGGSLRLSCAASGRIYQQNGLRWYRQAPGKERELVAGINSGVGTNYADSVKGRFTISRDNAKNTVYLQMNSLKPEDTAVFYCAKSQPSYSGDRDYWGQGTQVTVSS,low polyreactivity
18,QVQLVESGGGLVQAGGSLRLSCAASGFTFPRYAMGWYRQAPGKERELVAAIRRRGGSTYYADSVKGRFTISRDNAKNTVYLQMNSLKPEDTAVYYCATYNGVKGEASFDYWGQGTQVTVSS,high polyreactivity
19,QVQLVESGGGLVQAGGSLRLSCAASGRTFPPYGMGWYRQAPGKERELVAAISKSSGSTNYADSVKGRFTISRDNAKNTVYLQMNSLKPEDTAVYYCNVDLYRWSKLAGAYRMDYWGQGTQVTVSS,low polyreactivity
20,QVQLVESVGGLLQAGGTLRLSCAASGITFLDYGRGWYRQATGKERELVATINSGGSTNYADSVKGRFTISRDNAKHTVYLLMNSLKAEDTAVYYCDADYGSDYPKGDYWGQGTQVTVTS,low polyreactivity
21,QVQLVESGGGLVQAGGSLRLSCAASGFTFRYYAMGWYRQAPGKERELVAAINYSGGSTFYADSVKGRFTISRDNAKNTVYLQMNSLKPEDTAVYYCAATRLTPYIYGGKYNYWGQGTQVTVSS,high polyreactivity
